Results reported in article PMC6609509 (Molecular psychiatry, 2019).

Target: full-length recombinant ABI1 (UniProt Q8IZP0-5 1-476)
Assay: SPR

fold increase in KD against wild-type fragment 4: ~4 fold
B1: Shank3 fragment 4 (aa 668–858), S685I (domain or fragment, mouse, UniProt Q4ACU6 668-858, looked up)
chain: EEDGARRRAPPPPKRAPITTLTLRSKSMTAELEELASIRRRKGEKLDEILAVAAEPTLRPDIADADSRAATVKQRPTSRRITPAEISSLFERQGLPGPEKLPGSLRKGIPRTKSVGEDEKLASLLEGRFPRSTSMQDTVREGRGIPPPPQTAPPPPPAPYYFDSGPPPTFSPPPPPGRAYDTVRSSFKPGL
